According to patent publication US20130150294:

Tested on: purified recombinant full-length Src from Upstate Biotechnology

Substance: purified pig kidney Na+/K+-ATPase (PKE)
- Src-mediated tyrosine phosphorylation (commercial kinase assay kit): the Na+/K+-ATPase kept Src in an inactive state, addition of ouabain restored the kinase activity
